The values below come from publication PMC2720063 (Biochemistry, 2009).

For the assay, the target named is T1, Ror2(518–525) peptide (human).
T1 chain: REEFRHEA
Briefly: crystal structure.

B1: PFA1 Fab (Fab fragment of the monoclonal anti-Aβ antibody PFA1, Protofibril antibody 1) (Fab, V domains shown)
VH: QVTLKESGPGILKPSQTLSLTCSFSGFSLSTSGMGVGWIRQPSGKGLEWLAHIWWDDDRSYNPSLKSQLTISKDAARNQVFLRITSVDTADTATYYCVRRAHTTVLGDWFAYWGQGTLVTVSA
VL: DVLMTQTPLSLPVSLGDQASISCRSSQSIVHSNGNTYLEWYLQKPGQSPKLLIYKVSNRFSGVPDRFSGSGSGTDFTLKISRVEAEDLGVYYCFQGSHVPLTFGAGTKLELK
In the case of B1, the binding result was “binds”.
